Test results published in patent US20260234655A1, “Nuclear Targeted DNA Delivery and Compositions for Use in Practicing the Same” (Seawolf Therapeutics, Inc., priority 2022, published 2026).

Assays:
mouse liver = assay: Pooled DTS pDNA-LNP i.v. in mice; mRNA abundance in liver by RNA-seq; format: in vivo; conditions: 1 d post-dose, pDNA-LNP 0.66 mg/kg i.v.
Protocol: LNP formulation. LNPs encapsulating nucleic acid payloads were prepared by mixing an organic solution of lipids with an aqueous solution of nucleic acid (e.g., DNA only, mRNA only, or DNA/mRNA mixtures) as described in Prud′homme et al. (J Pharm Sci 2018). Briefly, the lipidic excipients mixture (ionizable lipid, helper lipid, cholesterol, PEG-lipid and potentially other targeting moieties) is dissolved in an organic solvent. An aqueous solution of the nucleic acid is prepared in a low pH buffer of range pH 3.0-4.0. The lipid mixture is then mixed with the aqueous nucleic acid solution at a flow ratio of 1:3 (V/V) using a commercially available mixer device. […] Particle size is determined by dynamic light scattering (Horiba nanoPartica SZ-100). Encapsulation efficiency is calculated by using Quant-it RiboGreen assay kit.
Quantification of mRNA abundance from pooled DTS screens. […] The PCR amplified cDNA was then library prepped (NEBNext library prep for Illumina) and sequenced on an Illumina Miseq (2×150 bp reads). Counts for each UMI were translated into the corresponding DTS using the UMI/Barcode registry and changes in abundance of each DTS were statistically analyzed using a custom R script. The log 2 fold change is calculated by comparing the RNA level in the pool vs. its expected abundance, which is derived from the abundance in the corresponding input DNA pool. […]

[1] = system: growth-arrested HepG2 cells; assay: Arrayed DTS screen in growth-arrested HepG2 cells; GFP intensity by live-cell imaging; format: cell-based; conditions: 24 h post-transfection
Source text: DNA construct design. Each DTS was constructed in pentameric repeat using a 15 bp spacer between each TFBS. The DTS was appended just 5′ to the promoter, effectively in a putative enhancer region. Various promoters were employed in these constructs, including CBh (a variant of the CAG promoter) and TTR. Several reporter genes were employed in these constructs, including enhanced Green Fluorescent Protein (eGFP). The polyadenylation (polyA) signal is a BGH-PolyA sequence. For pooled screening, unique molecular identifiers (UMIs; also known as barcodes) were used to distinguish between DNA constructs in a pool, and the UMIs were appended to the 3′UTR immediately downstream of the stop codon of eGFP, just preceding the BGH-PolyA sequence.
Cell culture. HepG2 cells were plated into a 384-well plate and grown for 48 hours to achieve confluency. Cell media was removed and replaced with culture media supplemented with Aphidicolin (1 uM) using EL406 automated plate washer and dispenser, then cells were transfected with DTS containing 17.5 ng plasmids using Lipofectamine 3000 without supplement. Expression of GFP was monitored using a Biotek Cytation 5 cell imaging reader over 24 hours to evaluate DTS activity. Total GFP per well was calculated and averaged over 4 well replicates.
pDNAs containing various DTSs (Table 12) were transfected individually into growth-arrested HepG2 cells. Cell growth was inhibited to prevent dissolution of the nuclear envelope. GFP expression was quantified over a period of 24 h post-transfection by measuring GFP intensity using quantitative live-cell imaging. Statistical analysis and hierarchical clustering methods were used to easily differentiate strong DTSs from weak DTSs in a heatmap (FIG. 5A). […] DTS.203: CREB1, PPARA, ONECUT1, HNF4A, PPARA. DTS.233: HNF1A, NR113, PPARA, HNF1A, PPARA. DTS.276: FOXA1, HNF4A, HNF1A, HNF4A, HNF1A.
For the arrayed screen, pDNAs containing various DTSs were transfected individually into growth-arrested HepG2 cells. For the pooled screen, pDNAs containing various DTSs were pooled together and transfected as a pool into growth-arrested HepG2 cells. Cell growth was inhibited to prevent dissolution of the nuclear envelope, which improves the accuracy of measuring DTS activity related to nuclear translocation. For the arrayed screen, GFP protein expression was quantified 24 h post-transfection by measuring GFP intensity using quantitative live-cell imaging. For the pooled screen, mRNA abundance for each DTS variant was determined using RNA-seq by deconvoluting the read counts for each UMI. A strong correlation between protein expression in the arrayed screen and mRNA expression in the pooled screen was observed (FIG. 6). […] Pooled screening can thus be used to quickly and reliably identify strong DTSs.

B1: NFKB: benchmark DTS with NF-κB binding sites in pentameric repeat (SEQ ID NO: 140) (nucleic acid)
DNA: GGGACTTTCCAGATTACTACTGATAGGGACTTTCCAGATTACTACTGATAGGGACTTTCCAGATTACTACTGATAGGGACTTTCCAGATTACTACTGATAGGGACTTTCC
modifications: DNA nuclear targeting sequence within DNA cargo construct, further chemistry not given here
- mRNA abundance in mouse liver compared to Spacer negative control (mouse liver): largest and most statistically significant increase
- GFP intensity / gene expression in arrayed screen compared to Spacer negative control [1]: robust increases
